According to article PMC3020801, “A new lysozyme from the eastern oyster, Crassostrea virginica, and a possible evolutionary pathway for i-type lysozymes in bivalves from host defense to digestion” (BMC Evolutionary Biology, 2010):

Target: the molecule itself
Assay: SDS-PAGE under non-reducing conditions; 12.5% acrylamide/bis gel, reduced and non-reduced conditions, Coomassie blue R-250; a second band of >100 kDa only under non-reduced conditions

B1: cv-lysozyme 3 (enzyme, Crassostrea virginica)
chain: SDAPCTNSGGVCQDDHLACHNGHYQSGLCTGGAHRRCCLTSASHTGSFSTGIVSQQCLQCICNVESGCKAIGCHFDVNSDSCGYFQIKEGYWHDCGSPGSSWRSCANDLACASKCVQAYMSRYIGFSGCSHSCESYARIHNGGPAGCKHTNTLGYWSHVHAQGCSHNS
notes: cv-lysozyme 3, Crassostrea virginica, tryptic peptide 1-35 of the purified protein; numbers count on: the mature protein; cv-lysozyme 3, tryptic peptide 37-69; cv-lysozyme 3, tryptic peptide 70-88; cv-lysozyme 3, tryptic peptide 89-103; cv-lysozyme 3, tryptic peptide 104-114; cv-lysozyme 3, tryptic peptide 115-122; cv-lysozyme 3, tryptic peptide 123-138; cv-lysozyme 3, tryptic peptide 139-148; …
- binding result: binds
